# ± gives the standard deviation of the averaged measurements.
# What was measured:
# [1] = test system: VchCAST RNA-guided transposition machinery (E. coli BL21(DE3) host, lacZ target); experiment: relative integration efficiency (T-LR orientation) vs wild-type transposon end (log2 (normalized fold change)); transposon end mutated: right end (5 bp flank + 75 bp right end); higher = more efficient transposition
# Outline: (§1)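 Relative integration efficiency is a fold change of output over input barcode abundance, normalised to reference barcodes and log-transformed. Input plasmids and genomic integration junctions were PCR-amplified and Illumina-sequenced from E. coli BL21(DE3) co-transformed with a T7-driven effector plasmid and pUC57 donor pools of 1549 left-end or 1849 right-end transposon variants. Plating was done with 0.1 mM IPTG at 37°C for 18 h, with two biological output replicates and four reference barcodes.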
# [2] = test system: VchCAST RNA-guided transposition machinery (E. coli BL21(DE3) host, lacZ target); experiment: relative integration efficiency (T-RL orientation) vs wild-type transposon end (log2 (normalized fold change)); transposon end mutated: right end (5 bp flank + 75 bp right end); higher = more efficient transposition
# Outline: as §1
Sequence,relative integration efficiency (log2) [1],relative integration efficiency (log2) [2]
ACATTTGTTGATACCACCATCAAATGATAATTCCACCCATACATTGATAATTATCACACCCAATTTAACTATAACGCTCTGATCATAGTCAGACCAACATTGCTACGACCCGTATTCGCACCGACAC,-1.66 ± 0.086,-4.883 ± 0.0066
ACATTTGTTGATACCACCATCAAATGATAATTCCACCCCTAAATTGATAATTATCACACCCAATTTAACTATAACGCTCTGATCATAGTCAGACCAACATTGCTACGACCCGTATTCGCACCGACAC,-2.31 ± 0.042,-5.24 ± 0.34
ACATTTGTTGATACCACCATCAAATGATAATTCCACCCCTACATTGATAATTATCACACCCAATTTAACTATAACGCTCTGATCATAGTCAGACCAACATTGCTACGACCCGTATTCGCACCGACAC,-2.15 ± 0.19,-5.99 ± 0.51
ACATTTGTTGATACCACCATCAAATGGTAATTACACCCATAAATTGATAATTATCACACCCAATTTAACTATAACGCTCTGATCATAGTCAGACCAACATTGCTACGACCCGTATTCGCACCGACAC,0.203 ± 0.17,-2.79 ± 0.21
ACATTTGTTGATACCACCATCAAATGGTAATTACACCCATACATTGATAATTATCACACCCAATTTAACTATAACGCTCTGATCATAGTCAGACCAACATTGCTACGACCCGTATTCGCACCGACAC,-2.98 ± 0.51,-5.6 ± 0.15
ACATTTGTTGATACCACCATCAAATGGTAATTACACCCCTAAATTGATAATTATCACACCCAATTTAACTATAACGCTCTGATCATAGTCAGACCAACATTGCTACGACCCGTATTCGCACCGACAC,-3.8 ± 0.81,-6.57 ± 0.25
ACATTTGTTGATACCACCATCAAATGGTAATTACACCCCTACATTGATAATTATCACACCCAATTTAACTATAACGCTCTGATCATAGTCAGACCAACATTGCTACGACCCGTATTCGCACCGACAC,0.00776 ± 0.29,-3.15 ± 0.8
ACATTTGTTGATACCACCATCAAATGGTAATTCCACCCATAAATTGATAATTATCACACCCAATTTAACTATAACGCTCTGATCATAGTCAGACCAACATTGCTACGACCCGTATTCGCACCGACAC,-0.205 ± 0.08,-3.19 ± 0.23
ACATTTGTTGATACCACCATCAAATGGTAATTCCACCCATACATTGATAATTATCACACCCAATTTAACTATAACGCTCTGATCATAGTCAGACCAACATTGCTACGACCCGTATTCGCACCGACAC,-4.54 ± 0.41,-6.61 ± 0.18
ACATTTGTTGATACCACCATCAAATGGTAATTCCACCCCTAAATTGATAATTATCACACCCAATTTAACTATAACGCTCTGATCATAGTCAGACCAACATTGCTACGACCCGTATTCGCACCGACAC,-4 ± 0.18,-6.33 ± 0.84
ACATTTGTTGATACCACCATCAAATGGTAATTCCACCCCTACATTGATAATTATCACACCCAATTTAACTATAACGCTCTGATCATAGTCAGACCAACATTGCTACGACCCGTATTCGCACCGACAC,-3.726 ± 0.034,-6.99 ± 0.2
ACATTTGTTGATACCCAAATAAAATGATAATTACACCCATAAATTGATAATTATCACACCCATAAATTGATATTGCCTCTGATCATAGTCAGACCAACATTGCTACGACCCGTATTCGCACCGACAC,-2.7 ± 0.25,-2.59 ± 0.17
ACATTTGTTGATACCCCCATAAAATGATAATTACACCCATAAATTGATAATTATCACACCCATAAATTGATATTGCCTCTGATCATAGTCAGACCAACATTGCTACGACCCGTATTCGCACCGACAC,-0.879 ± 0.24,-0.828 ± 0.081
ACATTTGTTGATACTACCATAAAATGATAATTACTCCCATAAATTGATAATTATCACTCCCATAAATTGATATTGCCTCTGATCATAGTCAGACCAACATTGCTACGACCCGTATTCGCACCGACAC,-0.0376 ± 0.31,-0.805 ± 0.022
ACATTTGTTGATACTACCATATAATGATAATAACACCCATAAAATGATAATTATCACACCCAATTTAACTATAACGCTCTGATCATAGTCAGACCAACATTGCTACGACCCGTATTCGCACCGACAC,1.9 ± 0.11,-1.45 ± 0.32
ACATTTGTTGATACTACCATTTAATGATAATAACACCCATAAAATGATAATTATCACACCCAATTTAACTATAACGCTCTGATCATAGTCAGACCAACATTGCTACGACCCGTATTCGCACCGACAC,1.8 ± 0.17,-1.01 ± 0.18
ACATTTGTTGATACTTCCATAAAATGATAATTACACCCATAAATTGATAATTATCACACCCATAAATTGATATTGCCTCTGATCATAGTCAGACCAACATTGCTACGACCCGTATTCGCACCGACAC,-0.525 ± 0.042,-0.637 ± 0.052
ACATTTGTTGATACTTGGATAAAATGATAATTACACCCATAAATTGATAATTATCACACCCATAAATTGATATTGCCTCTGATCATAGTCAGACCAACATTGCTACGACCCGTATTCGCACCGACAC,-1.07 ± 0.2,-0.966 ± 0.23

Sequence,relative integration efficiency (log2) [1],relative integration efficiency (log2) [2]
ACATTTGTTGATAGAACCATAAAATGATAATTAGACCCATAAATTGATAATTATCAGACCCATAAATTGATATTGCCTCTGATCATAGTCAGACCAACATTGCTACGACCCGTATTCGCACCGACAC,-0.628 ± 0.11,-1.64 ± 0.2
ACATTTGTTGATAGAACCATATAATGATAATAACACCCATAAAATGATAATTATCACACCCAATTTAACTATAACGCTCTGATCATAGTCAGACCAACATTGCTACGACCCGTATTCGCACCGACAC,1.28 ± 0.069,-1.72 ± 0.33
ACATTTGTTGATAGAACCATTTAATGATAATAACACCCATAAAATGATAATTATCACACCCAATTTAACTATAACGCTCTGATCATAGTCAGACCAACATTGCTACGACCCGTATTCGCACCGACAC,0.598 ± 0.17,-2.12 ± 0.42
ACATTTGTTGATAGTACCATAAAATGATAATTACACCCATAAATTGATAATTATCACACCCATAAATTGATATTGCCTCTGATCATAGTCAGACCAACATTGCTACGACCCGTATTCGCACCGACAC,-1.23 ± 0.17,-0.367 ± 0.064
ACATTTGTTGATAGTTGCATAAAATGATAATTACACCCATAAATTGATAATTATCACACCCATAAATTGATATTGCCTCTGATCATAGTCAGACCAACATTGCTACGACCCGTATTCGCACCGACAC,-1.37 ± 0.15,-1.07 ± 0.13
ACATTTGTTGATAGTTGGTATTTTACTATTAATCACCCATAAATTGATAATTATCAGTGGGTATTTAACTATAACGCTCTGATCATAGTCAGACCAACATTGCTACGACCCGTATTCGCACCGACAC,-4.49 ± 1.4,-5.71 ± 0.79
ACATTTGTTGATAGTTGGTATTTTACTATTAATGTGGGTATTTAACTATTAATTCACACCCATAAATTGATATTGCCTCTGATCATAGTCAGACCAACATTGCTACGACCCGTATTCGCACCGACAC,-3.485 ± 0.034,-6.222 ± 0.043
ACATTTGTTGATAGTTGGTATTTTACTATTAATGTGGGTATTTAACTATTAATTCAGTGGGTATTTAACTATAACGCTCTGATCATAGTCAGACCAACATTGCTACGACCCGTATTCGCACCGACAC,< -10,-6.63 ± 0.31
ACATTTGTTGATATAATTATCATTTTATGGTTGCAACCATAAAATGATAATTATCACAACCATAAAATGATAATTACTCTGATCATAGTCAGACCAACATTGCTACGACCCGTATTCGCACCGACAC,-4.32 ± 2.7,-3.54 ± 0.15
ACATTTGTTGATATAATTATCATTTTATGGTTGCAACCATAAAATGATAATTATGATAATTATCATTTTATGGTTGCTCTGATCATAGTCAGACCAACATTGCTACGACCCGTATTCGCACCGACAC,-4.33 ± 0.53,-2.97 ± 0.69
ACATTTGTTGATATAATTATCATTTTATGGTTGTAATTATCATTTTATGGTTGTCATAATTATCATTTTATGGTTGCTCTGATCATAGTCAGACCAACATTGCTACGACCCGTATTCGCACCGACAC,-6.39 ± 2.5,-6.26 ± 0.22
ACATTTGTTGATATCAACCATAAAATGATAATTACACCCATAAATTGATAATTATCACACCCATAAATTGATATTGCCTCTGATCATAGTCAGACCAACATTGCTACGACCCGTATTCGCACCGACA,-1.376 ± 0.0096,-0.0259 ± 0.16
ACATTTGTTGATATGCAACCATAAAATGATAATTACACCCATAAATTGATAATTATCACACCCATAAATTGATATTGCCTCTGATCATAGTCAGACCAACATTGCTACGACCCGTATTCGCACCGAC,-7.72 ± 1.2,-6.537 ± 0.019
ACATTTGTTGATATGTTCAACCATAAAATGATAATTACACCCATAAATTGATAATTATCACACCCATAAATTGATATTGCCTCTGATCATAGTCAGACCAACATTGCTACGACCCGTATTCGCACCG,-7.23 ± 1.7,-6.34 ± 0.1
ACATTTGTTGATATGTTGACAACCATAAAATGATAATTACACCCATAAATTGATAATTATCACACCCATAAATTGATATTGCCTCTGATCATAGTCAGACCAACATTGCTACGACCCGTATTCGCAC,-5.78 ± 1.9,-6.69 ± 0.15
ACATTTGTTGATATGTTGATACAACCATAAAATGATAATTACACCCATAAATTGATAATTATCACACCCATAAATTGATATTGCCTCTGATCATAGTCAGACCAACATTGCTACGACCCGTATTCGC,0.26 ± 0.15,-0.0755 ± 0.058
ACATTTGTTGATATGTTGATCAACCATAAAATGATAATTACACCCATAAATTGATAATTATCACACCCATAAATTGATATTGCCTCTGATCATAGTCAGACCAACATTGCTACGACCCGTATTCGCA,-3.71 ± 0.28,-7.04 ± 0.42
